The text below walks through data of patent US20260167703A1.

For experiment [1], the target named is DENV-2 E protein Domain III (Dengue virus serotype 2, strain Thailand/16681/1984). Nature of the experiment: BLI, mAb on AR2G biosensor, 20 ug/mL Domain III, 1200 sec. A general note: In BLI a coated tip is dipped into the sample, and binding shifts an interference pattern.
The target in experiment [2] is Dengue Virus Serotype 2 envelope protein (Dengue virus serotype 2, strain Thailand/16681/84). The experiment in a line: Luminex bead assay (antigen on MagPlex beads, MFI).
In experiment [3] the target is DENV-2 VLP (Dengue virus serotype 2, strain Thailand/16681/84). The experiment in a line: Luminex, VLP-coupled beads.
The target of experiment [4] is DENV-4 E protein Domain III (Dengue virus serotype 4, strain Indonesia/1036/1976). Nature of the experiment: BLI, mAb on AR2G biosensor, 20 ug/mL Domain III, 1200 sec.

What is called EC50 (read off the curve) is the concentration giving half of the maximal effect. By EC50 is commonly meant the concentration at which the effect is half-maximal. Read a low EC50 as greater potency.

3H5 (antibody): the Response (nm) in experiment [1] was found to be 0.488 nm.
The substance 777-2 (DV2-3H5) (antibody) had an EC50 (read off the curve) in experiment [2] of 0.06 µg/mL. In experiment [3], the EC50 is 0.0749 µg/mL. The Response (nm) in experiment [1] was 0.303 nm.
Consider 4G2 (antibody), for which the Response (nm) in experiment [4] turned out to be 0.056 nm; in experiment [1], 0.0174 nm.
